Laboratory results reported in EP4480965A1, “TRANSFERRIN RECEPTOR-BINDING MOLECULES, CONJUGATES THEREOF AND THEIR USES TO PREVENT OR TREAT CNS DISEASES” (Vect-Horus, priority 2023, dated 2024).
Like-named read-outs stand apart in the source and are kept apart here.

What was measured:
GFP [1] = details: for reduction of GFP protein levels: 120 hrs at 37°C
Procedure: Third, the ability of the VHH A, once conjugated to siGFPst1, to trigger hTfR-mediated endocytosis and subsequent delivery into the cytosol of target cells in pharmacological amounts was assessed. The VHH A-siGFPst1 or the control VHH Z-siGFPst1 bioconjugates were incubated on CHO-hTfR-GFP cells at 1 µM during 120 hrs at 37°C to allow free uptake, delivery to the cytosol and gene silencing to take place at the mRNA transcript and protein levels. […] Next, the VHH A-siGFPst1 bioconjugate was incubated on CHO-hTfR-GFP cells at concentrations ranging from 3 µM to 10 pM during 120 hrs.
Fifth, the TfR-mediated GFP-silencing effect of the VHH A-siGFPst1 bioconjugate was evaluated using a pulse-chase procedure. CHO-hTfR-GFP cells were exposed to VHH A-siGFPst1 at concentrations ranging from 300 nM to 1 pM during a short duration (6 hours), followed by chase in ligand-free medium up to a total duration of 120 hrs.
Finally, the ability of the VHH B to trigger hTfR-mediated endocytosis and subsequent gene silencing was evaluated by incubating the VHH B-siGFPst1 bioconjugate on CHO-hTfR-GFP cells at 30 nM during 120 hrs. […] To the best of our knowledge, receptor-mediated hepatocyte uptake through the asialoglycoprotein receptor (ASGPR) using triantennary GalNAc as a targeting ligand is the only ligand/receptor system able to trigger specific and efficient gene silencing at nanomolar concentrations. However, the use of this system for in vivo therapeutic applications with therapeutic nucleic acids is restricted to hepatic targets, since ASGPR is expressed in vivo exclusively in hepatocytes.

GFP [2] = test system: GFP
Procedure: Second, the intrinsic silencing activity of the VHH-siGFPst1 bioconjugate was assessed in living CHO cell lines stably expressing the TfR fused to EGFP (CHO-hTfR-EGFP cells) by transfection of the conjugate at 25 nM using Dharmafect 1 (Dharmacon) for direct delivery into the cytosol. The total cellular amount of GFP was quantified 72 hours post-transfection using flow cytometry. […] In another series of experiments, the VHH A-siGFPst1 conjugate was transfected on CHO-hTfR-EGFP cells at concentrations ranging from 10 nM to 1 pM and the total cellular amount of GFP was quantified 120 hours post-transfection using flow cytometry.

human TfR = target: T1, human TfR (Homo sapiens, UniProt P02786); experiment: Flow cytometry apparent Kd (Kd app) on CHO cells expressing hTfR fused to EGFP; format: binding; details: bioconjugates (siGFPst1, NODAGA, 68Ga), 2 µM to 30 pM, 1 hr at 4°C
T1 construct: expressed in transfected cells
Procedure: After one wash in PBS/BSA 2%, cells were incubated for 1 hr with an anti-6His tag antibody (mouse), washed twice with PBS/BSA 2%, and incubated for 45 min with an Alexa647-conjugated anti-mouse secondary antibody. […] No labeling of the CHO WT control cells was detected with all the tested VHHs (not shown).
After one wash in PBS/BSA 2%, cells were incubated for 1 hr with an anti-6His tag antibody (mouse), washed twice with PBS/BSA 2%, and incubated for 45 min with an Alexa647-conjugated anti-mouse secondary antibody. […] Fluorescence levels were assessed using an Attune NxT Flow Cytometer (Thermo Fisher Scientific). […] No labeling of the CHO WT control cells was detected with all the tested VHHs (not shown).
The binding properties of VHHs with affinity for the TfR from different species (i.e., human (h), mouse (m) and rhesus monkey (rh)) were tested using flow cytometry, and apparent affinities (Kd app) were determined. […] CHO cell lines expressing the hTfR, mTfR or rhTfR fused to EGFP were saturated with PBS/BSA 2% solution during 30 min to avoid nonspecific binding, followed by incubation with purified VHHs at increasing concentrations for 1 hr. After one wash in PBS/BSA 2%, cells were incubated for 1 hr with an anti-6His tag antibody (mouse), washed twice with PBS/BSA 2%, and incubated for 1 hr with an Alexa647-conjugated anti-mouse secondary antibody. After two last washes in PBS/BSA 2%, cells were fixed by incubation for 15 min with PBS/PFA 2%, washed once with PBS and finally resuspended in PBS. Fluorescence levels were assessed using an Attune NxT flow cytometer (Thermo Fisher Scientific).

T1 sequence (P02786 whole entry, the tested form may be a part): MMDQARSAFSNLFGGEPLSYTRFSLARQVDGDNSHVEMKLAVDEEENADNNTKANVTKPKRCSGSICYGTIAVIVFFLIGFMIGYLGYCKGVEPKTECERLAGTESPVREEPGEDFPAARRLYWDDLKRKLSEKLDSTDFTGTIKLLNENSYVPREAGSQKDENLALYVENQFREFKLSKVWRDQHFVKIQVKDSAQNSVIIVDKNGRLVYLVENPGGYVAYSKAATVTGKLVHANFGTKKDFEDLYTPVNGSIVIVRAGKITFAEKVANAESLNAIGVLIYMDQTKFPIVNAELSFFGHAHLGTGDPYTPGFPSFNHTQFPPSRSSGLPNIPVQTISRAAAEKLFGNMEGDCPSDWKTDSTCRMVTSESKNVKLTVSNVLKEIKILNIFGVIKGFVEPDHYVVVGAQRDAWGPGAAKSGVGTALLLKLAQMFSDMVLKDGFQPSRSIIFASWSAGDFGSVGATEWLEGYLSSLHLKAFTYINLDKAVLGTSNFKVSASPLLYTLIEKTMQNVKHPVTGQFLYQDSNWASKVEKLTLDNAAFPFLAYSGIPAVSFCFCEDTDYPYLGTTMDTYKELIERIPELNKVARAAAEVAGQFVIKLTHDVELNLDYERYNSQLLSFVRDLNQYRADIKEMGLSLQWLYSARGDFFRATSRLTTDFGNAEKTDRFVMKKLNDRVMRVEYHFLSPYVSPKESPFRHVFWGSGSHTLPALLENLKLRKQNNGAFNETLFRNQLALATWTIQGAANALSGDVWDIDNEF

| Molecule | GFP protein levels, % of the control levels (GFP [1]; 30 nM with 100X excess of free VHH A, 120 hrs) [%] | GFP protein levels, % of the control levels (GFP [1]; 30 nM with 100X excess of free VHH B, 120 hrs) [%] | competition of the silencing effect (GFP [1]; 30 nM with 100X excess of irrelevant VHH Z, 120 hrs) | reduction of GFP protein levels (GFP [1]; free uptake, 30 nM) | reduction of GFP protein levels (GFP [1]; free uptake, 1 µM) | maximum silencing efficiency (GFP [1]; free uptake, continuous 120 hrs) [%] | IC50 (GFP [2]; read-out: IC50 (reduction of GFP protein levels), transfection 10 nM to 1 pM, 120 hours) [nM] | maximum silencing efficiency (GFP [2]; transfection 10 nM to 1 pM, 120 hours) [%] | reduction of GFP protein levels (GFP [2]; transfection at 25 nM, 72 hours post-transfection) | apparent hTfR-binding affinity (Kd app) (human TfR) |
| --- | --- | --- | --- | --- | --- | --- | --- | --- | --- | --- |
| VHH A-siGFPst1: siGFPst1 conjugated to a tagged VHH A (conjugate) VHH: EVQLVESGGGVVQPGGSLKLSCVASGTDFSINFIRWYRQAPGKQREFVAGFTATGNTNYADSMKGRFTISRDNTKNAVYLQIDSLKPEDTAVYYCYMLDKWGQGTQVTVSSAAAEQKLISEEDLNGAAHHHHHHGS | 85 | 96 | no competition | ca. 60% | ca. -70% | -61.6 ± 2.9 | 0.0504 | -90.2 | ca. 85% | low nanomolar range |
| VHH A-NODAGA: VHH A-azide reacted with NODAGA-BCN (conjugate) VHH: EVQLVESGGGVVQPGGSLKLSCVASGTDFSINFIRWYRQAPGKQREFVAGFTATGNTNYADSMKGRFTISRDNTKNAVYLQIDSLKPEDTAVYYCYMLDKWGQGTQVTVSSAAAEQKLISEEDLNGAAHHHHHHGSAAAHHHHHHGGGLQR | – | – | – | – | – | – | – | – | – | low nanomolar range |
| VHH A-68Ga: VHH A-NODAGA radiolabeled using 68Ga chloride (conjugate) VHH: EVQLVESGGGVVQPGGSLKLSCVASGTDFSINFIRWYRQAPGKQREFVAGFTATGNTNYADSMKGRFTISRDNTKNAVYLQIDSLKPEDTAVYYCYMLDKWGQGTQVTVSSAAAEQKLISEEDLNGAAHHHHHHGSAAAHHHHHHGGGLQR | – | – | – | – | – | – | – | – | – | low nanomolar range |
| VHH B-siGFPst1: siGFPst1 conjugated to VHH B (conjugate) VHH: EVQLVESGGGVVQPGGSLRLSCAASGEIFSINFMRWYRQAPGKQREWVAGFTRDGSTNYPDSAKGRFTISRDNAKNTVYLQIDSLKPEDTAVYYCYMLDTWGQGTQVTVSSAAAEQKLISEEDLNGAAHHHHHHGS | – | – | – | ca. -60% | – | – | – | – | – | low nanomolar range |
